Test results published in patent US9090686B2, “Antibodies for the treatment of HIV” (Pierre Fabre Medicament, priority 2009, dated 2015).

Columns and labels:
[1] = biological target: T1, native form of CXCR4 expressed at the cell surface of monocytes and T lymphocytes (Homo sapiens, UniProt P61073); assay: FACS binding to peripheral blood mononuclear cells (whole blood); conditions: CD3 positive and CD14 positive cells, whole blood of healthy donor
T1 construct: the native form of CXCR4 expressed at the cell surface of monocytes and T lymphocytes; endogenous in cells; host or cells: whole blood (buffy coat) of a healthy donor; CD14+ monocytes and CD3+ T cells
T1 sequence (P61073 whole entry): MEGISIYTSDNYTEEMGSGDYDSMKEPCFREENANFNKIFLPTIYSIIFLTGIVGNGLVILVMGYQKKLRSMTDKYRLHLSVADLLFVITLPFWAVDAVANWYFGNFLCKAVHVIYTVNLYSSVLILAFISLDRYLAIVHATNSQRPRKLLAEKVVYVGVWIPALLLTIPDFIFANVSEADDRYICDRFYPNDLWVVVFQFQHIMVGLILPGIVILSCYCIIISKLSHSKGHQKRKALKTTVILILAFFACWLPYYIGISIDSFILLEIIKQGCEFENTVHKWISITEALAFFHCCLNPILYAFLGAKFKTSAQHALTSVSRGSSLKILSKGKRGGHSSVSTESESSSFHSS
Protocol: Blood was collected as buffy coat from healthy donor. 100 μl of whole blood was incubated with anti-human CXCR4 antibodies (clones 515H7 and 301aE5) at the indicated concentration for 20 minutes at 4° C. Blood was washed three times in PBS-BSA 1%-NaN3 0.01% and incubated with goat anti-human Alexa 488 IgG diluted 1:500 (Invitrogen) for 20 minutes at 4° C. Cells were then washed and incubated with CD14-PE (Caltag) or CD3-PE (Caltag) for 10 minutes at 4° C. and washed three times. Red blood cells were lysed with High-Yield lyse solution (Caltag) for 10 minutes at room temperature. Cells were analyzed immediately using Facscalibur (Becton-Dickinson). CXCR4 expression on monocytes was done on CD14 positive cells and CXCR4 expression on T cell was done on CD3 positives cells (FIG. 1). Results are expressed in Antigen Binding Capacity (ABC).

[2] = test system: HIV-1 primary isolate 89.6 (dual X4/R5 virus); assay: Single cycle neutralization assay in human PBMC, isolate 89.6; assay type: cell-based
Protocol: This assay is performed in 36 h using primary isolate 89.6 concentrated and diluted accordingly to allow the detection 2% infected CD4 T lymphocytes after 2 days of infection.
Twenty-five microliters of various dilutions of Mabs 515H7, c515H7 and 301aE5 were incubated for 1 h at 37° C. with 25 μl of virus. Human PBMC (25 μl) at 20×10^6 cells/ml were added to the Mab/virus mixture in a 96-well plate (U-bottom, Costar 3599) and cultured for 36 h in RPMI 1640 10% FCS and 20 U/ml IL-2 (R&D Systems, Minneapolis, Minn.).
After 2 days of culture, HIV-infected lymphocytes were detected by intracellular staining of viral p24 Ag. Cells were fixed and permeabilized using both Cytofix/Cytoperm and Perm/Wash kits (BD Biosciences) according to the manufacturer and stained with a fluorescent anti-p24 Mab (FITC- or PE-anti-p24, clone KC57; Beckman Coulter/Immunotech, Hialeah, FL) used at a 1/160 dilution in Perm/Wash solution added for 15 min at 4° C. After washing in PBS with 3% FBS, PBMC were diluted in 300 μl of PBS before flow cytometry analysis (LSRII; BD Biosciences) with DIVA software (BD Biosciences). The percentage of p24-positive cells in the different samples was determined by gating 20,000 events on a living cell population identified by forward- and side-scatter parameters. The living cell subsets were analyzed with the live/dead solution kit (Invitrogen). The p24 Ag-positive value was obtained after subtraction of background events in mock-infected cells.
The percent of neutralization was defined as the reduction of p24-positive cells compared with control infected wells with no Mab. The neutralizing titer was defined as the concentration of antibody (interpolated between successive dilutions performed in triplicate) that allows a 90% decrease in the percentage of infected cells.

human CXCR4 = human CXCR4 (Homo sapiens, UniProt P61073); assay: FACS binding to NIH3T3-hCXCR4 transfected cells; set-up: expressed in transfected cells; host or cells: NIH3T3 (mouse fibroblasts); conditions: for binding to human CXCR4-NIH3T3 transfected cell line (in words): FACS; for NIH3T3-CXCR4 (MFI): Mab 10 μg/ml, Mean Fluorescence Intensity by FACS
human CXCR4, sequence (P61073 whole entry): as above
Protocol: In this experiment, the specific binding to human CXCR4 (hCXCR4) of anti-CXCR4 Mabs 515H7 and 301aE5 was examined by FACS analysis.
(§1) NIH3T3 and NIH3T3-hCXCR4 transfected cells were incubated with 10 μg/ml of monoclonal antibodies 515H7 and 301aE5. The cells were then washed with 1% BSA/PBS/0.01% NaN3. Next, Alexa-labeled secondary antibodies were added to the cells and were allowed to incubate at 4° C. for 20 min. The cells were then washed again two times. Following the second wash, FACS analysis was performed.
as §1, with “NIH3T3-hCXCR4” for “NIH3T3 and NIH3T3-hCXCR4”, “a dose range” for “10 μg/ml”, “antibody c515H7 from 0 μg/ml to 10 μg/ml.” for “antibodies 515H7 and 301aE5.”, “1%BSA/PBS/0.01%” for “1% BSA/PBS/0.01%”
NIH3T3, NIH3T3-hCXCR4 transfected were incubated with 0 to 10 μg/mL of humanized Mabs 515H7 (hz515H7 VH1 D76N VL2, hz515H7 VH1 D76N VL2.1, hz515H7 VH1 D76N VL2.2, hz515H7 VH1 D76N VL2.3) for 20 min at 4° C. in the dark in 100 μl Facs buffer. After 3 washing in Facs buffer, cells were incubated with the secondary antibody, a goat anti-human Alexa 488 (dilution 1/500), for 20 minutes at 4° C. in the dark. After 3 washing in Facs buffer, propidium iodide was added in each well and only viable cells were analyzed by Facs. At least 5000 viable cells were assessed to evaluate the mean value of fluorescence intensity for each condition.

| Molecule | staining of T lymphocytes and monocytes [1] | inhibition of HIV-1 89.6 primary isolate replication in PBMC (in words) [2] | binding to human CXCR4-NIH3T3 transfected cell line (in words) (human CXCR4) | NIH3T3-CXCR4 (MFI) (human CXCR4) |
| --- | --- | --- | --- | --- |
| 515H7: murine anti-CXCR4 monoclonal antibody; light chain variable domain SEQ ID No. 7, heavy chain variable domain SEQ ID No. 8 (antibody, listed as Mus musculus, V domains shown) VH: EVNLVESGGGLVQPGGSLRLSCATSGFTFTDNYMSWVRQPPGKALEWLGFIRNKANGYTTDYSASVRGRFTISRDNSQSILYLQMNALRAEDSATYYCARDVGSNYFDYWGQGTTLTVSS VL: DIVMSQSPSSLAVSAGEKVTMSCKSSQSLFNSRTRKNYLAWYQQKPGQSPKLLIYWASARDSGVPARFTGSGSETYFTLTISRVQAEDLAVYYCMQSFNLRTFGGGTKLEIK | stained both T lymphocytes (FIG. 2A) and monocytes (FIG. 2B) | able to inhibit | bind specifically | 2752 |
| c515H7: chimeric antibody 515H7: murine variable domains fused to human Ckappa and IgG1/IgG2/IgG4 constant domains; isotype tested not stated (antibody, V domains shown) VH: EVNLVESGGGLVQPGGSLRLSCATSGFTFTDNYMSWVRQPPGKALEWLGFIRNKANGYTTDYSASVRGRFTISRDNSQSILYLQMNALRAEDSATYYCARDVGSNYFDYWGQGTTLTVSS VL: DIVMSQSPSSLAVSAGEKVTMSCKSSQSLFNSRTRKNYLAWYQQKPGQSPKLLIYWASARDSGVPARFTGSGSETYFTLTISRVQAEDLAVYYCMQSFNLRTFGGGTKLEIK | – | able to inhibit | bound specifically | – |
| 301aE5: murine anti-CXCR4 monoclonal antibody; light chain variable domain SEQ ID No. 34, heavy chain variable domain SEQ ID No. 35 (antibody, listed as Mus musculus, V domains shown) VH: QVQLKESGPGLVAPSQSLSITCTVSGFSLTDYGVYWVRQPPGKGLEWLGMIWGDGTTDYNSALKSRLSISKDNSKSQVFLKMNTLQTDDTARYYCARGRQFGFDYWGQGTTLTVSS VL: DIVMSQSPSSLAVSAGEKVTMRCKSSQSLFNSRTRKNYLAWYQQKPGQSPKLLIFWASIRESGVPDRFTGSGSGTDFTLTISSVQAEDLAVYYCKQSYNLRTFGGGTKLEIK | stained both T lymphocytes (FIG. 2A) and monocytes (FIG. 2B) | able to inhibit | bind specifically | 1367 |
